The record followed here is patent US20220332795A1 (ARO BIOTHERAPEUTICS, published 2022).

Assay [1] deals with T1, recombinant biotinylated CD71 extracellular domain (Sino Biologics) with an N-terminal 6His tag (human, UniProt P02786 89-760, biotinylated (site not stated)).
T1 construct: extracellular domain; also called hCD71; huCD71 ECD
As to the kind of experiment: primary solution ELISA screen. (In general: In an ELISA, binding on a coated surface is turned into a signal by an enzyme label.)

Assay [2] addresses T1, recombinant biotinylated CD71 …. Put plainly: primary solution ELISA screen, signal on hCD71 over HSA.

T1 sequence (P02786 other isoform, or with tags, fused parts or gaps): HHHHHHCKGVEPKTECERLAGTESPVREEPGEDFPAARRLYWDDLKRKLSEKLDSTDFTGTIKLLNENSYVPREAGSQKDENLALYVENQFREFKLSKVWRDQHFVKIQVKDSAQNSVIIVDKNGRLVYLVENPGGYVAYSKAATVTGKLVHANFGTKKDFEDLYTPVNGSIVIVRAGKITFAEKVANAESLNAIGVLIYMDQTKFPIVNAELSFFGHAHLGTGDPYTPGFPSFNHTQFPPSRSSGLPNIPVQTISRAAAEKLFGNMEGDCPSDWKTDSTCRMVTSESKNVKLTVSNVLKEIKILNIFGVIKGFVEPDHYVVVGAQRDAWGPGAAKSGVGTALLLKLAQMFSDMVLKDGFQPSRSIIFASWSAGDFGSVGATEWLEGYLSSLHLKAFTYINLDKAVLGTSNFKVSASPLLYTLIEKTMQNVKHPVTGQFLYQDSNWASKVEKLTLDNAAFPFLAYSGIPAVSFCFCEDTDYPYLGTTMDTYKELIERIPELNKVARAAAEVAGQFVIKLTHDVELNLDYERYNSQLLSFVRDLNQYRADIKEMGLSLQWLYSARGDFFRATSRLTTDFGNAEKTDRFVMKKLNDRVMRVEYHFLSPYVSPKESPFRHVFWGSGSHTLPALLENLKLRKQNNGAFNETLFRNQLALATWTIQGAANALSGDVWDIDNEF

B1: SEQ ID NO 78 (designed binder, not shown: small tags and cut ends)
chain: MLPAPKNLVVSRVTEDSARLSWTAPDAAFDSFGIGYYEHKRFGEAIQLSVPGSERSYDLTGLKPGTEYEVDIEGVKGGVLSWPLFAEFTT
notes: FN3 domain, hit of the apical domain panning
B1: in assay [1], the RLU was 271000 RLU. In assay [2], the “hCD71:HSA” value turned out to be 29.

B2: SEQ ID NO 67 (designed binder, not shown: small tags and cut ends)
chain: MLPAPKNLVVSRVTEDSARLSWTAPDAAFDSFTILYAEQAQFGEAIVLTVPGSERSYDLTGLKPGTEYPITGVKGGTRSGPLSAISTT
notes: as for B1
B2: the RLU in assay [1] turned out to be 1.85e+06 RLU. Besides, the “hCD71:HSA” value in assay [2] amounted to 131.

B3: SEQ ID NO 6 (designed binder, not shown: small tags and cut ends)
chain: MLPAPKNLVVSRVTEDSARLSWTAPDAAFDSFPIIYMETFSRGEAIVLTVPGSERSYDLTGLKPGTEYRVPIGGVKGGSSSCPLSAIFTT
notes: as for B1
As to B3, the RLU in assay [1] came out at 315000 RLU. Further, the “hCD71:HSA” value in assay [2] was 43.

B4: SEQ ID NO 10 (designed binder, not shown: small tags and cut ends)
chain: MLPAPKNLVVSRVTEDSARLSWTAPDAAFDSFKIAYIETATRGEAIVLTVPGSERSYDLTGLKPGTEYVVPIPGVKGGNTSSPLSAIFTT
notes: as for B1
Consider B4, for which the RLU in assay [1] is 788000 RLU. Besides, in assay [2], the “hCD71:HSA” value is 27.

B5: SEQ ID NO 62 (designed binder, not shown: small tags and cut ends)
chain: MLPAPKNLVVSRVTEDSARLSWTAPDAAFDSFKIRYTETRSIGEAIVLTVPGSERSYDLTGLKPGTEYCVPIGGVKGGDSSWPLSAISTT
notes: as for B1
Regarding B5, in assay [1], the RLU is 229000 RLU. The “hCD71:HSA” value in assay [2] was 28.

B6: SEQ ID NO 58 (designed binder, not shown: small tags and cut ends)
chain: MLPAPKNLVVSRVTEDSARLSWTAPDAAFDSFHIEYLELSRHGEAIVLTVPGSERSYDLTGLKPGTEYWVMIFGVKGGGPSKPLSAIFTT
notes: as for B1
Turning to B6, the RLU in assay [1] came to 1.04e+06 RLU. Moreover, the “hCD71:HSA” value in assay [2] was found to be 101.

B7: SEQ ID NO 71 (designed binder, not shown: small tags and cut ends)
chain: MLPAPKNLVVSRVTEDSARLSWTAPDAAFDSFPISYLELSLYGEAIVLTVPGSERSYDLTGLKPGTEYPVGIAGVKGGVVSRPLSAIFTT
notes: as for B1
Turning to B7, the RLU in assay [1] came out at 2.64e+06 RLU. For the same molecule, the “hCD71:HSA” value in assay [2] was found to be 96.

B8: SEQ ID NO 101 (designed binder, not shown: small tags and cut ends)
chain: MLPAPKNLVVSRVTEDSARLSWTAPDAAFDSFHILYEELFLVGEAIVLTVPGSERSYDLTGLKPGTEYKVPISGVKGGPVSRPLSAIFTT
notes: as for B1
As to B8, the RLU in assay [1] stood at 336000 RLU. For the same molecule, the “hCD71:HSA” value in assay [2] was determined as 73.

B9: SEQ ID NO 63 (designed binder, not shown: small tags and cut ends)
chain: MLPAPKNLVVSRVTEDSARLSWTAPDAAFDSFCISYYERMGRGEAIVLTVPGSERSYDLTGLKPGTEYMVYIFGVKGGLNSLPLSAIFTT
notes: as for B1
As for B9, in assay [1], the RLU is 4.71e+06 RLU. For the same molecule, the “hCD71:HSA” value in assay [2] is 826.

B10: SEQ ID NO 59 (designed binder, not shown: small tags and cut ends)
chain: MLPAPKNLVVSRVTEDSARLSWTAPDAAFDSFVYNEVHWIGEAIVLTVPGSERSYDLTGLKPGTEYFVGIYGVKGGHWSKPLSAIFTT
notes: as for B1
On to B10, for which the RLU in assay [1] came out at 1.11e+06 RLU. Besides, the “hCD71:HSA” value in assay [2] was found to be 68.

B11: SEQ ID NO 61 (designed binder, not shown: small tags and cut ends)
chain: MLPAPKNLVVSRVTEDSARLSWTAPDAAFDSFQIVYSELWIKGEAIVLTVPGSERSYDLTGLKPGTEYQVPIPGVKGGRNSFPLSAIFTT
notes: as for B1
On to B11, for which, in assay [1], the RLU was found to be 252000 RLU. Also, the “hCD71:HSA” value in assay [2] is 19.

B12: SEQ ID NO 76 (designed binder, not shown: small tags and cut ends)
chain: MLPAPKNLVVSRVTEDSARLSWTAPDAAFDSFTIEYYENIGIGEAIVLTVPGSERSYDLTGLKPGTEYSVPIVGVKGGPYSHPLSAIFTT
notes: as for B1
With B12, the RLU in assay [1] amounted to 674000 RLU. Also, the “hCD71:HSA” value in assay [2] is 41.

B13: SEQ ID NO 54 (designed binder, not shown: small tags and cut ends)
chain: MLPAPKNLVVSRVTEDSARLSWTAPDAAFDSFAIAYGEHIVIGEAIVLTVPGSERSYDLTGLKPGTEYMVPIAGVKGGPISLPLSAIFTT
notes: as for B1
Take B13: the RLU in assay [1] is 579000 RLU. Also, the “hCD71:HSA” value in assay [2] amounted to 49.

B14: SEQ ID NO 29 (designed binder, not shown: small tags and cut ends)
chain: MLPAPKNLVVSRVTEDSARLSWTAPDAAFDSFWIEYWEAVGFGEAIVLTVPGSERSYDLTGLKPGTEYFVGIYGVKGGYLSAPLSAIFTT
notes: as for B1
In the case of B14, the RLU in assay [1] came to 2.17e+06 RLU. In addition, the “hCD71:HSA” value in assay [2] turned out to be 580.

B15: SEQ ID NO 85 (designed binder, not shown: small tags and cut ends)
chain: MLPAPKNLVVSRVTEDSARLSWTAPDAAFDSFIIEYFEPIPIGEAIVLTVPGSERSYDLTGLKPGTEYAVNIYGVKGGYLSHPLSAIFTT
notes: as for B1
Consider B15, for which, in assay [1], the RLU was found to be 210000 RLU. In assay [2], the “hCD71:HSA” value is 33.

B16: SEQ ID NO 48 (designed binder, not shown: small tags and cut ends)
chain: MLPAPKNLVVSRVTEDSARLSWTAPDAAFDSFLIYYEEGYLEYYYSGEAIVLTVPGSERSYDLTGLKPGTEYYVGIVGVKGGGLSGPLSAISTT
notes: as for B1
Regarding B16, the RLU in assay [1] came to 3.04e+06 RLU. Besides, the “hCD71:HSA” value in assay [2] turned out to be 26.

B17: SEQ ID NO 66 (designed binder, not shown: small tags and cut ends)
chain: MLPAPKNLVVSRVTEDSARLSWTAPDAAFDSFTIDYDEPRSPGEAIVLTVPGSERSYDLTGLKPGTEYRVFIWGIKGGDTSFPLSAIFTT
notes: as for B1
Take B17: the RLU in assay [1] came to 232000 RLU. Besides, the “hCD71:HSA” value in assay [2] amounted to 29.

B18: SEQ ID NO 69 (designed binder, not shown: small tags and cut ends)
chain: MLPAPKNLVVSRVTEDSARLSWTAPDAAFDSFHIAYEETATSGEAIYLRVPGSERSYDLTGLKPGTEYGVEIEGVKGGARSRPLYADFTT
notes: as for B1
B18: in assay [1], the RLU worked out at 3.17e+06 RLU. Also, the “hCD71:HSA” value in assay [2] is 1170.

B19: SEQ ID NO 50 (designed binder, not shown: small tags and cut ends)
chain: MSLPAPKNLVVSRVTEDSARLSWTAPDAAFDSFTIHYREFQLSGEAIVLTVPGSERSYDLTGLKPGTEYDVPIEGVKGGPGSRPLSAIFTT
notes: as for B1
As for B19, the RLU in assay [1] turned out to be 321000 RLU. The “hCD71:HSA” value in assay [2] was 20.

B20: SEQ ID NO 80 (designed binder, not shown: small tags and cut ends)
chain: MLPAPKNLVVSRVTEDSARLSWTAPDAAFDSFWIDYEEEGVIGEAIYLHVPGSERSYDLTGLKPGTEYVVKIHGVKGGHPSHPLVAVFTT
notes: as for B1
With B20, the RLU in assay [1] amounted to 844000 RLU. For the same molecule, in assay [2], the “hCD71:HSA” value amounted to 25.

B21: SEQ ID NO 75 (designed binder, not shown: small tags and cut ends)
chain: MLPAPKNLVVSRVTEDSARLSWTAPDAAFDSFTISYGEEALIGEAIYLRVPGSERSYDLTGLKPGTEYYVHIEGVKGGSWSQPLAAAFTT
notes: as for B1
As to B21, the RLU in assay [1] amounted to 530000 RLU. Also, the “hCD71:HSA” value in assay [2] came to 143.

B22: SEQ ID NO 3 (designed binder, not shown: small tags and cut ends)
chain: MLPAPKNLVVSRVTEDSARLSWTAPDAAFDSFNIEYAETRWYGEAIVLTVPGSERSYDLTGLKPGTEYVVPIDGVKGGIASKPLSAIFTT
notes: as for B1
Consider B22, for which the RLU in assay [1] was found to be 687000 RLU. Also, the “hCD71:HSA” value in assay [2] came to 69.

B23: SEQ ID NO 79 (designed binder, not shown: small tags and cut ends)
chain: MLPAPKNLVVSRVTEDSARLSWTAPDAAFDSFVIEYTERFWSGEAIVLTVPGSERSYDLTGLKPGTEYSVPIDGVKGGQCSTPLSAIFTT
notes: as for B1
For B23, the RLU in assay [1] stood at 273000 RLU. Moreover, the “hCD71:HSA” value in assay [2] was found to be 46.

B24: SEQ ID NO 74 (designed binder, not shown: small tags and cut ends)
chain: MLPAPKNLVVSRVTEDSARLSWTAPDAAFDSFSITYLEWWNLGEAIVLTVPGSERSYDLTGLKPGTEYMVTIPGVKGGMSSYPLSAIFTT
notes: as for B1
For the molecule B24, the RLU in assay [1] turned out to be 824000 RLU. Also, in assay [2], the “hCD71:HSA” value was determined as 56.
